Literature values in patent publication US7547701B2, “Haloalkyl containing compounds as cysteine protease inhibitors” (Virobay, Inc., priority 2003, dated 2009).

Conditions: in clinical trials

For “OKT3: murine monoclonal antibody directed towards CD-3 domain of activated T-cells”, the “patients administered OKT3 that produce antibodies versus the therapy” value is listed as 20-40%.
